In patent US20120164688A1:

What was measured:
[1] = molecular target: human neurotrophin-3 (NT-3) (human) (UniProt P20783); assay: BIACORE; 20 nM NT-3 + 500 nM agent, % NT-3 bound to TrkA-hFc chip (reference)
[2] = molecular target: human neurotrophin-3 (NT-3) (human) (UniProt P20783); assay: BIACORE; 20 nM NT-3 + 500 nM agent, % NT-3 bound to TrkB-hFc chip (reference)
[3] = molecular target: human nerve growth factor (NGF) (human) (UniProt P01138); assay: BIACORE blocking; negative control, % free NGF bound to p75-hFc chip
[4] = molecular target: human neurotrophin-3 (NT-3) (human) (UniProt P20783); assay: BIACORE; 20 nM NT-3 + 500 nM agent, % NT-3 bound to p75-hFc chip (reference)
[5] = molecular target: human neurotrophin-3 (NT-3) (human) (UniProt P20783); assay: BIACORE; 20 nM NT-3 + 500 nM agent, % NT-3 bound to TrkC-hFc chip (reference)
[6] = molecular target: human nerve growth factor (NGF) (human) (UniProt P01138); assay: BIACORE blocking; negative control, % free NGF bound to TrkA-hFc chip
[7] = molecular target: human nerve growth factor (NGF) (human) (UniProt P01138); assay: BIACORE SPR; complex dissociation half-life
[8] = molecular target: human nerve growth factor (NGF) (human) (UniProt P01138); assay: BIACORE SPR; mAb captured, 20 nM NGF
mouse NGF (mNGF) (mouse) [9] = molecular target: mouse NGF (mNGF) (mouse) (UniProt P01139); assay: BIACORE SPR; purified mAb
rat NGF (rNGF) (rat) [10] = molecular target: rat NGF (rNGF) (rat) (UniProt P25427); assay: BIACORE SPR; purified mAb
[11] = molecular target: human nerve growth factor (NGF) (human) (UniProt P01138); assay: BIACORE SPR; purified mAb
[12] = molecular target: human neurotrophin-3 (NT-3) (human) (UniProt P20783); assay: BIACORE; 20 nM NT-3 + 500 nM agent, % NT-3 bound to TrkA-hFc chip
[13] = molecular target: human neurotrophin-3 (NT-3) (human) (UniProt P20783); assay: BIACORE; 20 nM NT-3 + 500 nM agent, % NT-3 bound to p75-hFc chip
[14] = molecular target: human neurotrophin-3 (NT-3) (human) (UniProt P20783); assay: BIACORE; 20 nM NT-3 + 500 nM agent, % NT-3 bound to TrkC-hFc chip
[15] = molecular target: human nerve growth factor (NGF) (human) (UniProt P01138); assay: BIACORE SPR; mAb captured, human NGF injected
[16] = molecular target: human neurotrophin-3 (NT-3) (human) (UniProt P20783); assay: BIACORE; 20 nM NT-3 + 500 nM agent, % NT-3 bound to TrkB-hFc chip
[17] = molecular target: human neurotrophin-3 (NT-3) (human) (UniProt P20783); assay: BIACORE SPR; NT-3 1.25 nM to 40 nM
[18] = molecular target: human nerve growth factor (NGF) (human) (UniProt P01138); assay: BIACORE blocking; % free NGF bound to p75-hFc chip
mouse NGF (mNGF) (mouse) [19] = molecular target: mouse NGF (mNGF) (mouse) (UniProt P01139); assay: BIACORE SPR
rat NGF (rNGF) (rat) [20] = molecular target: rat NGF (rNGF) (rat) (UniProt P25427); assay: BIACORE SPR
[21] = molecular target: human nerve growth factor (NGF) (human) (UniProt P01138); assay: BIACORE SPR
[22] = molecular target: human neurotrophin-3 (NT-3) (human) (UniProt P20783); assay: cell-based or functional assay
[23] = molecular target: human nerve growth factor (NGF) (human) (UniProt P01138); assay: cell-based or functional assay
[24] = molecular target: human nerve growth factor (NGF) (human) (UniProt P01138); assay: BIACORE blocking; % free NGF bound to TrkA-hFc chip
[25] = molecular target: human neurotrophin-3 (NT-3) (human) (UniProt P20783); assay: BIACORE SPR; mAb captured, 20 nM NT-3

Sequence of human nerve growth factor (NGF) (human) (P01138 122-241 limits assumed): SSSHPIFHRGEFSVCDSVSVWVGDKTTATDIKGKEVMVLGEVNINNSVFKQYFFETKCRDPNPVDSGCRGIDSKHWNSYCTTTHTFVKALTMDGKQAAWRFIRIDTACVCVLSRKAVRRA
Sequence of human neurotrophin-3 (NT-3) (human) (P20783 139-257 limits assumed): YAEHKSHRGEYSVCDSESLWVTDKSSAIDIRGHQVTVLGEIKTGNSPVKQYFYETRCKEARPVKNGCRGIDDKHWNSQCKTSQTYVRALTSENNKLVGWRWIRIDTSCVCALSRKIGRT
Sequence of mouse NGF (mNGF) (mouse) (P01139 122-241 limits assumed): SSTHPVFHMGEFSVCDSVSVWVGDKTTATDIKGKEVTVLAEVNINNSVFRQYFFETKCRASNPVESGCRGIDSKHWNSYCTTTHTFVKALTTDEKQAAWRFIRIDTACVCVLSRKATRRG
Sequence of rat NGF (rNGF) (rat) (P25427 122-241 limits assumed): as the sequence (P01139 122-241 limits assumed) above, with A40G, R50K, S61P, E94D, T117A counted along it

Substance: IgG1 control (AVASTIN®; Genentech, CA) (antibody)
- % binding [1]: 100%
- % binding [2]: 100%
- % Binding p75-hFc [3]: 116%
- % binding [4]: 100%
- % binding [5]: 100%
- % Binding TrkA-hFc [6]: 116%

Substance: humanized anti-human NGF monoclonal antibody E3 ("RN624") (tanezumab; CAS Registry No. 880266-57-9)
- t1/2 [7]: 35 h
- Kd [8]: 1.3 pM
- Kd (mouse NGF (mNGF) (mouse) [9]): 1.4 pM
- Kd (rat NGF (rNGF) (rat) [10]): 1.51 pM
- Kd [11]: 1.25 pM
- t1/2 [11]: 35 h
- % binding [12]: 7%
- % binding [13]: 19%
- % binding [14]: 8%
- Kd [15]: 1.3 pM
- % binding [16]: 8%
- Kd [17]: 1100 pM
- % Binding p75-hFc [18]: 16%
- Kd (mouse NGF (mNGF) (mouse) [19]): 1.4 pM
- Kd (rat NGF (rNGF) (rat) [20]): 1.5 pM
- Kd [21]: 1.25 pM
- IC50, HEK293-TrkC SRE-luciferase [22]: 150000 to 200000 pM
- IC50, PC12 SRE-luciferase with 75 nM NT-3 [22]: 105000 pM
- IC50 (pM), PC12 SRE-luciferase [23]: 4.9 pM
- MG87 IC50 [23]: < 186 pM
- PC12 IC50 [23]: 21 pM
- % Binding TrkA-hFc [24]: 10%
- Kd [25]: 1100 pM
